Results as given in patent publication US6372467.
Numbering of substitutions follows the chain as printed. Numbers in names are those of the source.

What was measured:
[1] = target: histone H2B
[2] = target: Glutathione-S-transferase (GST)-tagged S6

B1: hemagglutinin (HA)-tagged p54^S6K (protein)
chain: MAAVFDLDLETEEGSEGEGEPELSPADACPLAELRAAGLEPVGHYEEVELTETSVNVGPERIGPHCFELLRVLGKGGYGKVFQVRKVQGTNLGKIYAMKVLRKAKIVRNAKDTAHTRAERNILESVKHPFIVELAYAFQTGGKLYLILECLSGGELFTHLEREGIFLEDTACFYLAEITLALGHLHSQGIIYRDLKPENIMLSSQGHIKLTDFGLCKESIHEGAVTHTFCGTIEYMAPEILVRSGHNRAVDWWSLGALMYDMLTGSPPFTAENRKKTMDKIIRGKLALPPYLTPDARDLVKKFLKRNPSQRIGGGPGDAADVQRHPFFRHMNWDDLLAWRVDPPFRPCLQSEEDVSQFDTRFTRQTPVDSPDDTALSESANQAFLGFTYVAPSVLDSIKEGFSFQPKLRSPRRLNSSPRVPVSPLKFSPFEGFRPSPSLPEPTELPLPPLLPPPPPSTTAPLPIRPPSGTKKSKRGRGRPGR
- in vitro kinase assay (screen of substrates) [1]: p54^S6K can phosphorylate both S6 and histone H2B
- in vitro kinase assay (phosphorylation of GST-S6 by anti-HA immunoprecipitates) [2]: p54^S6K kinase activity towards S6 was stimulated by serum treatment of the cells

B2: HA-p54^S6K KR (protein)
chain: B1 chain with K99R
- in vitro kinase assay (phosphorylation of GST-S6 by anti-HA immunoprecipitates) [2]: The KR mutation of p54^S6K abolished the kinase activity in an in vitro kinase assay
